# According to publication PMC9106292 (Science Advances, 2022):
# What was measured:
# [1] = molecular target: ASC-mCherry (full-length human ASC, TEV protease cleavage site, mCherry, C-terminal hexa-histidine tag) (human, UniProt Q9ULZ3 1-195); assay: negative-stain EM
# cryo-EM structure = molecular target: the molecule itself; assay: cryo-EM structure
# negative-stain EM = molecular target: the molecule itself; assay: negative-stain EM
# Chain of ASC-mCherry (full-length human ASC, TEV protease cleavage site, mCherry, C-terminal hexa-histidine tag) (Q9ULZ3 whole entry): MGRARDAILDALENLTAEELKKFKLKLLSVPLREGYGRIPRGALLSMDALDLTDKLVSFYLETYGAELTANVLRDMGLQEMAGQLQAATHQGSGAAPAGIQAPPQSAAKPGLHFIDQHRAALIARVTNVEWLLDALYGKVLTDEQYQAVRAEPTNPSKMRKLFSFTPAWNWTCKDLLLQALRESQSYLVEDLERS
binding result [1],Binder,binding result (cryo-EM structure),binding result (negative-stain EM)
binds,human NLRP3^PYD (residues 3 to 110; C108S) (domain or fragment) MASTRCKLARYLEDLEDVDLKKFKMHLEDYPPQKGCIPLPRGQTEKADHVDLATLMIDFNGEEKAWAMAVWIFAAINRRDLYEKAKRDEPKWGSDNARVSNPTVISQE,binds,
,NLRP3^PYD (residues 3 to 110; C108S) CAPS mutant H51R (domain or fragment) MASTRCKLARYLEDLEDVDLKKFKMHLEDYPPQKGCIPLPRGQTEKADRVDLATLMIDFNGEEKAWAMAVWIFAAINRRDLYEKAKRDEPKWGSDNARVSNPTVISQE,,binds
,NLRP3^PYD (residues 3 to 110; C108S) CAPS mutant A77V (domain or fragment) MASTRCKLARYLEDLEDVDLKKFKMHLEDYPPQKGCIPLPRGQTEKADHVDLATLMIDFNGEEKAWAMAVWIFAVINRRDLYEKAKRDEPKWGSDNARVSNPTVISQE,,binds
,NLRP3^PYD (residues 3 to 110; C108S) CAPS mutant D21H (domain or fragment) MASTRCKLARYLEDLEDVHLKKFKMHLEDYPPQKGCIPLPRGQTEKADHVDLATLMIDFNGEEKAWAMAVWIFAAINRRDLYEKAKRDEPKWGSDNARVSNPTVISQE,,binds
